Measured values published in US20180280504A1, “GLYCAN-INTERACTING COMPOUNDS AND METHODS OF USE” (SIAMAB THERAPEUTICS, INC., priority 2014, published 2018).

Assays:
[1] = PAA-glycan ELISA, GcSTn-PAA; type: binding; conditions: 200 ng/well PAA antigen; 1:5 dilutions from 1 μM
Protocol: 18D2 and 18C7 antibodies were further characterized by ELISA comprising antigens other than BSM. ELISAs were carried out according to Example 2, with the exception that ELISA plates were coated with biotinylated polyacrylamide (PAA) particles comprising either AcSTn (AcSTn-PAA), GcSTn (GcSTn-PAA) or Tn (Tn-PAA) as antigens. These particles present the antigens in a multivalent format. Briefly, 96-well ELISA plates were coated with 200 ng/well of each PAA antigen and blocked with PBS with 1% OVA. Antibodies were serially diluted at 1:5 in PBS with 1% OVA using an initial concentration of 1 μM. After blocking, antibodies were added to the plates and plates were incubated for 1.5 hours at room temperature. Binding of anti-STn antibodies was detected using a goat anti-mouse IgG-HRP conjugated antibody (Jackson Immunoresearch Laboratories, West Grove, Pa.). The reaction was developed by addition of HRP substrate and hydrogen peroxide. The reaction was then stopped by the addition of sulfuric acid (1.6 M). Optical densities were measured at 490 nm. A dose-response curve was generated using readings at each concentration tested and a non-linear regression curve was generated with four-parameter modeling to determine EC50 values for each antibody.

[2] = E3-STn allograft model, complete blood count (CBC); type: in vivo, mouse; set-up: White blood cells Level: unit not given here; conditions: CBC at end of study, 5 mice
Protocol: At the end of the study, a complete blood count (CBC) was obtained for 5 mice treated with antibody as well as 3 mice treated with vehicle control. Blood was collected from all mice via terminal cardiac puncture and processed for plasma. Blood was placed in EDTA microtainer tubes (BD & Co., Franklin Lakes, N.J.) then centrifuged. Plasma layers were then removed and snap frozen in cryo vials (Thermo-Fisher Scientific, Rochester, N.Y.) and stored at −80° C. until analysis. Analysis was carried out to look for levels of a variety of factors.

[3] = test system: E3-STn tumors; experiment: E3-STn allograft model, second round study, tumor volume; type: in vivo, mouse; conditions: for Average Tumor Volume: 25 mg/kg i.p. twice weekly
From the text: Standard deviation values are listed in parenthesis.

[4] = test system: MDA-MD-231 STn− cells; experiment: Fluorescence microscopy of ALEXA FLUOR 488-S3F binding and internalization, STn− cells; type: cell-based, human
Protocol: (§1) To analyze the internalization of antibodies by fluorescence microscopy, the following procedure was carried out. MDA-MD-231 STn− cells and MDA-MD-231 STn+ cells were cultured in Eagles minimum essential medium containing 10% fetal calf serum, 100 μg/ml penicillin, 100 UI/ml streptomycin, 45 μg/ml gentamycin, as well as 1 mg/ml G418 for STn+ cells. Cells were sub-cultured by treatment with Accutase buffer and seeded in microscope chamber slides at 10,000 cells/chamber in the case of STn− cells and 20,000 cells/chamber in the case of STn+ cells. All cells were cultured overnight at 37° C. Cells were subsequently incubated with either 1.5, 5 or 10 μg/ml S3F conjugated with ALEXA FLUOR® 488 dye (Thermo Fisher Scientific, Pittsburgh, Pa.) in complete media at 4° C. for 1 hour. Cells were then washed with ice-cold PBS in order to remove antibodies that were not bound to the cell surface. Complete media was then administered to each chamber and the cells were incubated at 37° C. for either 0, 15, 30 or 60 minutes in order to allow internalization of any surface-bound antibodies.
(§2) Following each time point, cells were washed twice with PBS in order to remove unbound antibodies. […] Cells were visualized the following day by analysis on a Nikon Eclipse Ti fluorescence microscope.

[5] = test system: MDA-MD-231 STn+ cells; experiment: Fluorescence microscopy of ALEXA FLUOR 488-S3F binding and internalization, STn+ cells; type: cell-based, human
Protocol: as §1, §2

[6] = test system: COLO-205 Human Colon Adenocarcinoma Tumor Xenograft; experiment: COLO-205 human colon adenocarcinoma xenograft model, tumor volume; type: in vivo, mouse; conditions: 5 mg/kg i.p. once weekly
From the text: To evaluate antibody drug conjugates (ADCs) as single agents in an COLO-205 Colon AdenocarcinomaTumor Xonograft model, 40 athymic nude female mice age range 6-8 weeks were randomly separated into four separate groups, one vehicle control and three ADC treatments, then maintained individually with food/water ad libitum (see the following Table).
Animals were inoculated in the subcutaneous right flank with 5×10^6 colon adenocarcinoma tumor cells (COLO-205) in matrigel, mean tumor size was 175-225 mm^3 at study initiation. Animals were given either vehicle or one of the antibody drug conjugates (5 mg/kg) by intraperitoneal injection once weekly. Tumor volume and percent body weight change were determined once weekly until study termination. The study was terminated when the tumor in the vehicle control animal reached a mean tumor weight >1500 mm^3. SE refers to “standard error.”

[7] = 488-S3F conjugate at 1.5, 5, 10 μg/ml, 4° C.

B1: 18C7: anti-STn mouse monoclonal, IgG2c κ, from mouse #4436; VH SEQ ID NO: 4, VL SEQ ID NO: 5 (antibody, V domains shown)
VH: QVTLKESGPGILQPSQTLSLTCSFSGFSLSTFGMGVGWIRQPSGKGLEWLAHIWWDDDKYYNPALKSRLTISKDTSKNQVFLKIANVDTADTATYYCARIAYYYGSERDYWGQGTTLTVSS
VL: QIVLTQSPAIMSASPGEKVTMTCSASSSISYMHWYHQKPGTSPKRWIYDTSKLASGVPARFSGSGSGTSYSLTISSMEAEDAATYYCHQRSSYTFGGGTKLEIKR
EC50 [1]: 2.59 nM

B2: 7G9: anti-STn mouse monoclonal, IgG2b κ, from mouse #4407; VH SEQ ID NO: 12, VL SEQ ID NO: 9 (antibody, V domains shown)
VH: QVQLKESGPGLVAPSQNLSITCTVSGFSLTSYGVNWVRQPPGKGLEWLGVIWGDGSTNYHSALISRLIISKENSKSQVFLKLNSLQTNDTATYYCTKGFVYWGQGTLVTVSA
VL: QIVLTQSPAIMSASPGEKVTMTCSASSSVSYMHWYQQKSGTSPKRWIFDTSKLASGVPARFSGSGSGTSYSLTISSMEAEDAATYYCQQWSSNLLTFGAGTKLELK
% Lymphocytes Level [2]: 44.4%
% Monocytes Level [2]: 4.6%
% Neutrophils (Segmented) Level [2]: 51.0%
Hematocrit Level [2]: 46.9%
Hemoglobin Level [2]: 16.0 g/dL
Lymphocytes Level [2]: 5.6 10^9/L
Mean Corpuscular Hemoglobin Concentration Level [2]: 34.2 g/dL
Mean Corpuscular Hemoglobin Level [2]: 16.2 pg
Mean Corpuscular Volume Level [2]: 47.4 fL
Mean platelet volume Level [2]: 7.4 fL
Monocytes Level [2]: 0.7 10^9/L
Neutrophils Level [2]: 7.6 10^9/L
Platelet Cell Distribution Width Level [2]: 32.2%
Platelet count Level [2]: 712.2 10^3
Red Cell Distribution Width Level [2]: 19.0%
Red blood cells Level [2]: 9.9 10^6/L
White blood cells Level [2]: 13.9
Average Tumor Volume ([3]; day 1 of treatment): 125.9 mm^3
Average Tumor Volume ([3]; day 5 of treatment): 135.2 mm^3
Average Tumor Volume ([3]; day 8 of treatment): 144.5 mm^3
Average Tumor Volume ([3]; day 12 of treatment): 157.2 mm^3
Average Tumor Volume ([3]; day 15 of treatment): 169.2 mm^3
Average Tumor Volume ([3]; day 19 of treatment): 178.0 mm^3
Average Tumor Volume ([3]; day 22 of treatment): 186.4 mm^3
Average Tumor Volume ([3]; day 26 of treatment): 195.9 mm^3
Average Tumor Volume ([3]; day 29 of treatment): 199.4 mm^3
Average Tumor Volume ([3]; day 33 of treatment): 201.5 mm^3
Average Tumor Volume ([3]; day 36 of treatment): 206.5 mm^3
Average Tumor Volume ([3]; day 40 of treatment): 212.9 mm^3
Average Tumor Volume ([3]; day 43 of treatment): 243.7 mm^3
Average Tumor Volume ([3]; day 47 of treatment): 277.5 mm^3
Average Tumor Volume ([3]; day 50 of treatment): 313.4 mm^3
average tumor volumes as compared to vehicle control ([3]; second round study, 25 mg/kg i.p. twice weekly for 7 weeks): greatly reduced

B3: S3F: 3F1 variable domains combined with IgG2a constant domains; heavy chain SEQ ID NO: 63, light chain SEQ ID NO: 64 (antibody)
heavy: QVQLQQSDAELVKPGASVKISCKASGYTFTDHAIHWVKQKPEQGLDWIGYISPGNGDIKYNEKFKDKVTLTADKSSSTACMHLNSLTSEDSAVYFCKRSLLALDYWGQGTTLTVSSAKTTAPSVYPLAPVCGDTTGSSVTLGCLVKGYFPEPVTLTWNSGSLSSGVHTFPAVLQSDLYTLSSSVTVTSSTWPSQSITCNVAHPASSTKVDKKIEPRGPTIKPCPPCKCPAPNLLGGPSVFIFPPKIKDVLMISLSPIVTCVVVDVSEDDPDVQISWFVNNVEVHTAQTQTHREDYNSTLRVVSALPIQHQDWMSGKEFKCKVNNKDLPAPIERTISKPKGSVRAPQVYVLPPPEEEMTKKQVTLTCMVTDFMPEDIYVEWTNNGKTELNYKNTEPVLDSDGSYFMYSKLRVEKKNWVERNSYSCSVVHEGLHNHHTTKSFSRTPGK
light: DIVMTQSHKFMSTSVGDRVSITCKASQDVGTNIAWYQQKPGRSPKVLIYSASTRHTGVPDRFTGSGSGTDFTLTISNVQSEDLTDYFCQQYSSFPLTFGVGTKLELKRADAAPTVSIFPPSSEQLTSGGASVVCFLNNFYPKDINVKWKIDGSERQNGVLNSWTDQDSKDSTYSMSSTLTLTKDEYERHNSYTCEATHKTSTSPIVKSFNRNEC
internalization by STn− cells ([4]; 37° C. 15-60 min, acid wash): not efficiently internalized by STn− cells
binding to the surface of STn− cells [4, 7]: does not bind the surface of STn− cells
internalization by STn+ cells ([5]; 37° C. 15-60 min, acid wash): capable of being internalized by STn+ cells
binding to the surface of STn+ cells [5, 7]: binds the surface of STn+ cells
tumor volume course after day 8 ([6]; athymic nude mice): continued to show rapid increase in volume
Tumor Volume ([6]; study day 1): 182.8 mm^3
Tumor Volume ([6]; study day 5): 315.2 mm^3
Tumor Volume ([6]; study day 8): 448.8 mm^3
Tumor Volume ([6]; study day 10): 543.1 mm^3
Tumor Volume ([6]; study day 15): 655.3 mm^3
Tumor Volume ([6]; study day 19): 850.6 mm^3
Tumor Volume ([6]; study day 22): 938.2 mm^3
Tumor Volume ([6]; study day 25): 1001.4 mm^3
